# From patent US20110286916A1 (published 2011)
# Positions count from the first letter of the chain named.
# B1: N1wc301 (scFv, V domains shown)
# VH: QVQLQQSGAEVKKPGASVKVSCKASGYIFGTYAIHWVRQAPGQSLEWMGWINAGTGNTKYSQKFQGRVTITMDTSATTAYMELSSLRSGDTAVYYCTRGDYYDSRGYYNRFDYWGRGTLVTVSS
# VL: QSVVTQPPSASGTPGQRVTISCSGSSSNIGKNNVYWYQQLPGAAPKLLIYRNHERASGVPDRFSGSKSGTSASLAISGLQSEDEADYYCAARDDSLNGYVFGTGTKVTVL
# notes: phage scFv
# B2: N1wc129 (scFv, V domains shown)
# VH: QVQLVQSGAEVKKPGASVKVSCKASGYNFTGYYLHWVRQAPGQGLEWMGWIDPNSGGTDYAQQFQGRVTVTRDTSISTAYMELSGLRSDDTAVYYCASDSFDHWGQGTLVTVSS
# VL: QSVLTQPPSASGTPGQRATISCSGSGSNIGRNAVNWFQQLPGAAPKLLIYSNIHRPSGVPDRISGSKSGTSATLAISGLQSEDEADYYCATWDDSLNDYVFGTGTKLTVL
# notes: phage scFv
# B3: N1wc132 (scFv, V domains shown)
# VH: B2 VH with D52N, Q63K, S84G, A97V, Q106R
# VL: QSVLTQPPSASGTPGQRVTISCSGSSSNIGSNPVNWYQQLPGSAPKLLVYSDDQRPSGVPDRFSGSKSGASASLAISGLQSEDESDYYCAAWDDSQNAVVFGGGTKVTVL
# notes: phage scFv
# B4: N1wc319 (scFv, V domains shown)
# VH: B2 VH with K12E, L34M, D52N, D59N, Q63K, V70M, G85R, S98T, H103Y, Q106R
# VL: QSVLTQPPSSSGTPGQRVTISCSGSSSNIGSNSVNWYQQLPGAAPKLLIYSDNQRPSGVPDRFSASKSYTSASLAISGLQSGDEADYFCATWDDSLTGLVFGGGTKLTVL
# notes: phage scFv
# B5: N1wc289 (scFv, V domains shown)
# VH: QVQLVQSGAEVKKPGTTVKISCKVSGYKFTDYYIHWVRQAPGKGLEWMGFVDPTDDETRFAEKFQGRLTMTADTSRDTASMELSSLRSEDTAVYYCIRGIAALADWGRGTMVTVSS
# VL: QAVLTQPSSLSASPGASASLTCTLRSDINLETSRIYWFQQKPGSPPRYLLRYQSDSDNNLDSGVPSRFSGSKDASANAGILLISGVQSEDEADYHCMIWHSGGSVFGGGTKVTVL
# notes: phage scFv
# B6: N1wc113 (scFv, V domains shown)
# VH: QMQLVQSGAEVKRPGASVNLSCKASGYSFSRYYIHWVRQAPGQGLELMGRINPGGGTTTYAQKFQGRVTLSRDTSTNTIFMELNGLTSEDTAMYYCARSNYDILAGYGPDAFDFWGQGTMVTVSS
# VL: QAVLTQPSSVSGAPGQRVTISCTGSSSNIGAGNDVHWYRQFPGTAPKLLIYGNNKRPSGVSDRFSGSKSGTSASLAITGLQVEDEADYYCQSYDSSLGGSDVFGGGTKLTVL
# notes: phage scFv
# B7: N1wc441 (scFv, V domains shown)
# VH: QVQLVQSGAEVKKPGASVKVSCKAPGYSFTDYYLHWVRQAPGIGLEWVGWINPNNGGTNYAQKFRGRVTMTRDTAINTAYMDMRWLRSDDTAVYYCATDGPPGTGNAFDIWGRGTLVTVSS
# VL: SYELTQPPSVSVSPGQTARITCSGDALPDKYVHWYQQKSGQAPVLVLFDDSKRPSGIPERFSGSSSGTVATLIISGAQVEDEGDFFCYSTDSSGNERVFGGGTKLTVL
# notes: phage scFv
# B8: N1wc586 (scFv, V domains shown)
# VH: QVQLVQSGPEVKKPGASVKVSCKAAGYTFPDFYMHWVRQAPGKGPEWVGWINSNSGSTRLAERLEGRVTLTRDTSISTAYMELTSLTSDDTAVYYCARGAYDYVWGTSRYVADAFDIWGQGTLVTVSP
# VL: DIVMTQSPSTLSASVGDRVTITCRASQGISSWLAWYQQKPGRAPKVLIYKASTLESGVPSRFSGSGSGTDFTLTISSLQPEDFATYYCQQSYSTPWTFGQGTKLEIK
# notes: phage scFv
# B9: N1wc170 (scFv, V domains shown)
# VH: QVQLQQSGPEVKKPGASVKISCKTSGYTFSSFGISWVRQAPGQGPEWMGWVSPYSGDTDYAQKFRGRVTMTIDSSTDTAYVEMRSLRSDDTAIYYCANSPISDGSSSSYDNWGKGTLVTVSS
# VL: SYELTQPPSVSVAPGQTARITCGGENIGTKSVHWYQQKSGQAPVLVIYEDKKRPSGIPDRFSGSSSGTMATLTITGAQVDDEADYYCYSADNTGDQRMFGGGTKLTVL
# notes: phage scFv
# B10: N1wc125 (scFv, V domains shown)
# VH: QVQLQQSGAEVKKPGAPLKVSCKTSGFTFTGYYIHWVRQAPGQGLEWMGRVDPYNGATNFAQKFQGRVTMTTDTSTSTTYMELMSLRSDDTAVYYCARGWELDSWGQGTLVTVSS
# VL: QSVLTQPASVSGSPGQSITISCTGTSSDVGGYNYVSWYQQHPGKAPKLMIYEGSKRPSGVSNRFSGSKSGNTASLTISGLQAEDEADYYCSSYTTRSTRVFGGGTKLTVL
# notes: phage scFv
# B11: N1wc281 (scFv, V domains shown)
# VH: QVQLQESGAEVKKPGASVKVSCRASGYTFTTNSLHWVRQAPGQGLDWMGVINPRDGSATVAQKFQGRITMTSDTSTSTVFLALSSLTSDDTGVYFCARDGLDYRDTSRILAPTDVWGRGTLVTVSS
# VL: QSVLTQPPSVSVSPGQTASITCSGDKLGDKYTFWYQQKPGQSPVLIIYQDTKRPSGIPERFSGSNSGNTATLTISGTQAMDEADYYCQAWDSNTDHVIFGGGTKLTVL
# notes: phage scFv
# B12: N1wc164 (scFv, V domains shown)
# VH: QVQLVQSGADVKKPGASVKISCKASGYTFTKYYMHWVRQAPGQGLEWMGIINPTNGYTSYAQKFQGRVTMTSDTSASTVSMELSSLRSEDTAVYYCTRSYSNYDSFDIWGRGTMVTVSS
# VL: QAVLTQPSSVSGAPGQRITISCTGTSSNIGAGYDVEWYQHLPGTAPKLLIYRNSNRPSGVPDRFSASKSGTSASLVITGLQAEDEADYYCQSYDTRLSDSVIFGGGTKLTVL
# notes: phage scFv
# B13: N1wc182 (scFv, V domains shown)
# VH: QVQLVQSGPEVKKPGTSVKVSCKASGFTFTSSAVQWVRQARGQRLEWIGWIVVGSGNTNYAQKFQERVTITRDMSTSTAYMELSSLRSEDTAVYYCVADTVYWGQGTLVTVSS
# VL: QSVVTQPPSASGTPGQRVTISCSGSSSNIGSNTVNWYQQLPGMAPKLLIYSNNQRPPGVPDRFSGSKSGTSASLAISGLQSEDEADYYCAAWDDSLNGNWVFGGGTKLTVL
# notes: phage scFv
# B14: N1wc570 (scFv, V domains shown)
# VH: B13 VH with Q105R, L108M
# VL: QSVLTQPPSASATPGQTVTISCSGSTSNIGNNNVNWYQQVPGTAPKLLMYSNNQRPSGVPDRFSGSRSGTSASLAITALQSEDEADYYCATWDDSLSAWVFGGGTKVTVL
# notes: phage scFv
# B15: N1wc150 (scFv, V domains shown)
# VH: EVQLVQSGAEVKKPGASVKVSCKASGYNFTGYYMHWVRQAPGQGLEWMGWINPNSGGTNYAQKFQGRVTMTRDTSISTAYMELSRLRSDDTAVYYCATDSFDYWGRGTMVTVSS
# VL: SYELTQPPSASGTPGQRVTISCSGSGSNIGKNTVNWYQQLPGAAPKLLIYSNNERPSGVPGRFSGSKSGTSASLAISGLQSEDETDYYCAAWDDSLNDMVFGGGTKVTVL
# notes: phage scFv
# B16: N1wc239 (scFv, V domains shown)
# VH: B15 VH with Q6E, M34I, T69I, R106K
# VL: QSVLTQPPSASGTPGQRVAISCSGSHSNIRSNDVYWYQQFPGTAPKLLIYSNDQRPSGVSDRFAGSKSGTSASLAISGLRSEDESDYYCATWDDSLSGVVFGGGTKLTVL
# notes: phage scFv
# B17: N1wc295 (scFv, V domains shown)
# VH: B15 VH with E1Q, V5Q, K63N
# VL: QSVLTQPPSASGTPGQRVTISCSGNRSNIGSNTVNWYQQLPGTAPKLLIYSNDQRPSGVPDRFSGSKSGTSASLTISGLQSDDEADFYCAAWDDNLNGYVFGSGTKVTVL
# notes: phage scFv
# B18: N1wc177 (scFv, V domains shown)
# VH: QVQLVQSGAEVKEPGSSVRVSCKSSGGTFSNYAISWVRQAPGQGLEWMGGIIPGFGKTNYAQKFQGRVTITADASTSTTYMELRTLRSGDTAVYYCARDRGPDIGVAHFDSWGKGTMVTVSS
# VL: QAVLTQPSSASGTPGQRVIISCSGSSSNIGKYIVNWYQQLPGAAPKLLIYTYNERPSGVPARFSGSTSGTSASLAITGLQSEDEADYYCASWDDSLNVVVFGGGTKLTVL
# notes: phage scFv
# B19: N1wc241 (scFv, V domains shown)
# VH: EVQLVQSGAEVKKPGASVKVSCKTSGYTFNDYYHHWVRQAPGQGLEWMGWINPHTGVANYAEKYKGRLAMTGDTSISTIYMDLSSLISDDTAIYFCARERSEWRNTVSSPSEYFHHWGKGTLVTVSS
# VL: QSVLTQPPSASGTPGQRVTISCSGSFSNIGSNNVYWYQQLAGTAPKLLIYRNNERPSGVPDRFSGSKSGTSASLAISGLRSEDEADYYCAVRDDSLSGHYVFGSGTKVTVL
# notes: phage scFv
# B20: N1wc127 (scFv, V domains shown)
# VH: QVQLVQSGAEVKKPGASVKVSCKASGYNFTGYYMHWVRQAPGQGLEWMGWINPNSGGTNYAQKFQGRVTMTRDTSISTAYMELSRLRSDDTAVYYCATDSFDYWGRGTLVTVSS
# VL: SYVLTQPPSTSGAPGQRVTISCSGSSSNIGSNGVNWYHHLPGTAPKLLIYSNFHRPSGVPDRFSGSKSGTSATLAISGLQSEDEADYYCAAWDDSLNDYVFGVGTKVTVL
# notes: phage scFv
# B21: N1wc535 (scFv, V domains shown)
# VH: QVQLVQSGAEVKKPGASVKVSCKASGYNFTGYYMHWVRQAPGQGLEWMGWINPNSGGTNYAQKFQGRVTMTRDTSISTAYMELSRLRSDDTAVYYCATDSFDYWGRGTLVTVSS
# VL: QSVLTQPPSASGTPGQRVTLSCSGSSSNIGSNTVNWYQQLPGTAPKVLIYSDNQRPSGVPDRFSGSKSGTSASLAISGLQSDDEAVYYCAGWDDSLNAYLFGTGTKVTVL
# notes: phage scFv
# Columns and labels:
# [1] = target: T1, human full-length Notch1 with C-terminal FLAG tag, stably expressed on 293 FlpIn (TREx) cells (human, UniProt P46531 19-2555); test: FACS, phage scFv
# T1 construct: tetracycline/doxycycline-induced expression from pcDNA5/FRT/TO-HN1+FLAG; also called hN1; 293_N1
# [2] = target: T2, human full-length Notch3 with C-terminal FLAG tag, stably expressed on 293 FlpIn (TREx) cells (human, UniProt Q9UM47 40-2321); test: FACS, phage scFv
# T2 construct: whole, on cells; made by the same strategy as the Notch1 line; also called 293-N3; hN3
Binder,binding result [1],binding result [2]
B1,binds,binds
B2,binds,binds
B3,binds,binds
B4,binds,binds
B5,binds,binds
B6,binds,binds
B7,binds,binds
B8,binds,binds
B9,binds,binds
B10,binds,binds
B11,binds,binds
B12,binds,binds
B13,binds,binds
B14,binds,binds
B15,binds,binds
B16,binds,binds
B17,binds,binds
B18,binds,binds
B19,binds,binds
B20,binds,binds
B21,binds,binds
